Data as given in the RNAGym collection of RNA variant scans (doi:10.7554/elife.80360).

B1: HDV Ribozyme (parent)
chain: GGCCGGCAUGGUCCCAGCCUCCUCGCUGGCGCCGGCUGGGCAACAUUCCGAGGGGACCGUCCCCUCGGUAAUGGCGAAUGGGACCCA

Variants of: B1
Assay: self-cleavage, relative activity (ratio to wild type); higher = more cleavage; co-transcriptional

Variant | self-cleavage
G5A G17A | 0.172
G6C A78U | 0
G6U C36A | 0.133
G5U G35C | 0
G5U U9G | 0.554
G5U U9C | 0.332
G6U C64G | 0.388
G6U A78G | 0.229
G6C G31C | 0.399
G6C G31A | 0.277
G6U A16G | 0.388
G6U A16C | 0
G6A G59C | 0.587
G6A C63G | 0.601
G6A C63U | 0.743
G5C C63G | 0
G5C C63U | 0.0437
G5C C63A | 0.383
G5A C26U | 0.511
G6A C84A | 0.431
G5C C85U | 0.277
G5C C21A | 0.0831
G6C C22G | 0.145
G5C G54U | 0.217

Variant | self-cleavage
G5C G54C | 0.158
G6C U79G | 0
G6A C62A | 0.543
G5C U37G | 0.111
G5U C41G | 0.111
G5U C41U | 0.415
G5U U12G | 0.356
G5C A8U | 0.0665
G5C A8G | 0
G6A C21A | 0.0707
G6A C19U | 0.0875
G5C G25U | 0.0475
G6C G29U | 0.111
G5C C36U | 0.0978
G6U G52C | 0.554
G6U G52U | 0.397
G6U A45U | 0.475
G6U A45G | 0.403
G6U A45C | 0.0462
G6C C58A | 0.308
G6C C58U | 0.394
G5U A87C | 0.277
G5U A87G | 0.636
G5C C64G | 0.0462

Variant | self-cleavage
G6C G38A | 0.0396
G5U G68C | 0.359
G6C A43G | 0
G5A G40A | 0.0992
G5U A77G | 0.227
G5A G11A | 0.101
G5A G11C | 0.214
G6A C57G | 0.643
G6A C57A | 0.966
G6A C13G | 0
G6U C48U | 0.696
G6U C48A | 0.542
G6U C21G | 0.0361
G6U C21A | 0.227
G5A C21A | 0.0923
G5C G80U | 0.124
G6C C63U | 0.348
G5U C7A | 0.566
G5U G54U | 0.612
G6U C75G | 0.145
G6U C75U | 0.113
G5U G55U | 0.394
G5U A70G | 0.375
G5C A51G | 0.262

Variant | self-cleavage
G6A C58A | 0.724
G5C C58A | 0.162
G6C C44A | 0.208
G6A G40U | 0.911
G6A G53C | 0.928
G5U G80A | 0.208
G6A A43G | 0.277
G6A A43C | 0.0489
G6A C32A | 0.277
G5U A71G | 0.361
G5U G74C | 0.0475
G5U G74A | 0.125
G6C G35A | 0.0755
G6C G68A | 0.201
G6U C30G | 0.0326
G6U C30U | 0.131
G5A G25A | 0
G5C A16C | 0.0875
G5U G59U | 0.633
G5C G31A | 0.0755
G5C G31C | 0.0519
G6A U37A | 0.214
G5U G73A | 0.0665
G5U G73U | 0.122

Variant | self-cleavage
G6A G54A | 0.471
G6A G54U | 0.819
G6A G50C | 0.767
G6U A8C | 0.447
G5C C22A | 0
G6C A70C | 0.133
G6C A70U | 0.185
G6U C7G | 0
G5U C48U | 0.346
G5U C33A | 0.898
G6C G52C | 0.237
G6A A87G | 0.654
G6A U72C | 0.219
G6U G17U | 0.0519
G5U U47A | 0.378
G6U A42U | 0.095
G6U C61G | 0.707
G6U G68C | 0.383
G6A G52C | 0.831
G5C G10C | 0
G5C G10U | 0.0489
G6C C57G | 0.396
G6C C57U | 0.269
G6C C61U | 0.285

Variant | self-cleavage
G6C C61A | 0.161
G6C C33U | 0.155
G5U A43G | 0
G5U A43U | 0.0978
G6A C30G | 0.0678
G6A C22G | 0.0739
G5U G38A | 0.119
G5U G38U | 0.453
G6A U27A | 0.514
G6A U27G | 0.643
G5C A77U | 0
G5C U47A | 0.158
G6U G10C | 0.364
G5A C49G | 0.237
G5A G31A | 0
G6C G76C | 0.364
G5U C15U | 0.723
G5U C15A | 0.0831
G5U G76A | 0.391
G5A C62G | 0.0594
G6C U12A | 0
G5U G50U | 0.795
G5U G50A | 0.196
G5A U9A | 0.332

Variant | self-cleavage
G6C U69A | 0.208
G6C G55A | 0.16
G5U A45G | 0.692
G5U A45C | 0.0875
G5C C84U | 0.119
G6U A51U | 0.739
G5C G11C | 0.196
G5A C24G | 0
G5A G59A | 0.407
G6U C41U | 0.259
G6U C41A | 0.269
G6U C41G | 0.237
G5C A56U | 0.314
G5C A56G | 0.237
G5C C18U | 0.142
G5U C85G | 0.289
G6C U60G | 0.312
G6C U60C | 0.453
G6U G54A | 0.522
G5A C7G | 0.0875
G6A G55A | 0.712
G6A G55U | 0.831
G5U U37A | 0.0723
